The target of assay [1] is REFACTO® (recombinant factor VIII-like polypeptide consisting of amino acids 1-743 and 1638 through 2332 of human factor VIII) (human) (UniProt P00451). In words: phage ELISA, ratio with target to without target. For orientation: ELISA stands for enzyme-linked immunosorbent assay.
Assay [2] shares this target. In words: phage ELISA on the factor VIII target (REFACTO), anti-M13-HRP.
For assay [3] the target is unchanged. As to the kind of experiment: affinity column, peptide on Toyopearl Formyl 650-M; fraction quantified by factor VIII activity assay.
The target is the same in assay [4]. As to the kind of experiment: batch binding to peptide beads; fractions by sandwich ELISA; % of total recovered.
Assay [5] has the same target. As to the kind of experiment: affinity column, peptide on Toyopearl Formyl 650-M; fraction quantified by RP-HPLC.
Assay [6] shares this target. In words: batch binding to peptide beads; fractions by sandwich ELISA; % of input.

Positions of bridges follow the written chain, without caps; N, C: chain ends. No end group written: not given here. *: point of attachment. NHNH2 = NN*

Chain of REFACTO® (recombinant factor VIII-like polypeptide consisting of amino acids 1-743 and 1638 through 2332 of human factor VIII) (human) (P00451 20-762, chain 1 of 2): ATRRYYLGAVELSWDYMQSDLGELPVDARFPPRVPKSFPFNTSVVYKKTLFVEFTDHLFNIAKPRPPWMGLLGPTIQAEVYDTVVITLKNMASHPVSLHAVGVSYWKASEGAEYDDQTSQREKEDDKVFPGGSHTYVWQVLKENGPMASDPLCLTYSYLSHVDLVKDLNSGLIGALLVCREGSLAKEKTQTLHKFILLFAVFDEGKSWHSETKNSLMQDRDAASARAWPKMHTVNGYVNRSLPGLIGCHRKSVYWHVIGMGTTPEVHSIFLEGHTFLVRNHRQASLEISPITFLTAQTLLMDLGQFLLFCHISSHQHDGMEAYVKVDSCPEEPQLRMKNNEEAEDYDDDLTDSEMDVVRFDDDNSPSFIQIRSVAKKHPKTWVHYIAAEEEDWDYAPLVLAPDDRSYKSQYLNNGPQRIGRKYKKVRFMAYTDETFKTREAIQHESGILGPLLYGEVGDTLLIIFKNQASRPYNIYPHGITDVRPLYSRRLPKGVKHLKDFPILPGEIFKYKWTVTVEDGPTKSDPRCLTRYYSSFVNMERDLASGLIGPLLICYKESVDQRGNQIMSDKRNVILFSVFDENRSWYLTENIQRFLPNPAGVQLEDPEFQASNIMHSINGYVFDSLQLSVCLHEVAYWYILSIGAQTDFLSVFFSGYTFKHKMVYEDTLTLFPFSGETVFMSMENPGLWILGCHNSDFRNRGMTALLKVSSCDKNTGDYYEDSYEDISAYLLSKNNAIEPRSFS
Chain of REFACTO® (recombinant factor VIII-like polypeptide consisting of amino acids 1-743 and 1638 through 2332 of human factor VIII) (human) (P00451 1657-2351, chain 2 of 2): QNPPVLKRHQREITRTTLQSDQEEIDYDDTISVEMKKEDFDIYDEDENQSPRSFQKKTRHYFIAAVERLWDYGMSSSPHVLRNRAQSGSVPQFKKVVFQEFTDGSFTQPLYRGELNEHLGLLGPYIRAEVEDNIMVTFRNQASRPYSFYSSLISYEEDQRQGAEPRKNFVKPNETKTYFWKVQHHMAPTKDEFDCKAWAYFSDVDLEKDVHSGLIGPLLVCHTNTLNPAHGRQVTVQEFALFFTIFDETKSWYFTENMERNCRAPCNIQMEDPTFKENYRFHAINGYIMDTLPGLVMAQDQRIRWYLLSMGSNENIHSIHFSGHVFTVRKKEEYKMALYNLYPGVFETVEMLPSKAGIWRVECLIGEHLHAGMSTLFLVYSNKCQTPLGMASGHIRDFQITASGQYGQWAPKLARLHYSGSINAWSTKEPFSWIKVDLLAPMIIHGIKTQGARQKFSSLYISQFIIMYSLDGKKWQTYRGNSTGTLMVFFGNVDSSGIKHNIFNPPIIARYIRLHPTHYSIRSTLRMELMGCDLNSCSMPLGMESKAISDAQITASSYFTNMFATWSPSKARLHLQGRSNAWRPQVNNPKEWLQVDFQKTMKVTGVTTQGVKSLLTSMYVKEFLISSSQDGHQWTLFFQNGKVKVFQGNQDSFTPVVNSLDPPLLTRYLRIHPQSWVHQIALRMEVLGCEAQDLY

B1: TN9 phage isolate 01 (SEQ ID NO: 31) (peptide)
peptide: FCHVFNFVHCS
As for B1, in assay [1], the R (ELISA score with target / ELISA score without target) stood at 8. Further, in assay [2], the ELISA signal amounted to 0.5 OD630.

B2: CS-458 (…-NHNH2) (peptide)
peptide: AEGTGDFCWVFAFDHCHDPGPEGGGS-NHNH2
modifications: disulfide 8-16
Turning to B2, in assay [3], the % recovery in Flow stood at 1.4% and the % recovery in elution A amounted to 55.6%. Moreover, in assay [4], the % of total recovered in Eluate came to 27%, the % of total recovered in Unbound came to 59% and the % of total recovered in Wash came to 14%. In addition, in assay [5], the % recovery in Flow amounted to 1.8%, the % recovery in elution A turned out to be 54.3%, the % recovery in elution B was found to be 0% and the % recovery in pH2 amounted to 0%. In assay [6], the % of input recovered in Eluate stood at 47%, the % of input recovered in Unbound came to 20% and the % of input recovered in Wash amounted to 10%.

B3: TN8 phage isolate 01 (SEQ ID NO: 18) (peptide)
peptide: HGCGAWFRPCHA
B3: the ELISA signal in assay [2] came to 0.2 OD630.

B4: TN9 phage isolate 11 (SEQ ID NO: 32) (peptide)
peptide: FCHVFPFLHCD
On to B4, for which the ELISA signal in assay [2] worked out at 0.2 OD630.

B5: TN8 phage isolate 02 (SEQ ID NO: 13) (peptide)
peptide: HPCGSWFNPCAH
In the case of B5, the R (ELISA score with target / ELISA score without target) in assay [1] is 8. In addition, the ELISA signal in assay [2] was 0.3 OD630.

B6: TN7 phage isolate D04 (peptide)
peptide: RLCSWISPCSA
For the molecule B6, the R (ELISA score with target / ELISA score without target) in assay [1] was found to be 6. For the same molecule, the ELISA signal in assay [2] was found to be 0.3 OD630.

B7: TN8 phage isolate 01 (SEQ ID NO: 19) (peptide)
peptide: HPCGAWFNPCPR
With B7, the ELISA signal in assay [2] amounted to 0.2 OD630.

B8: CS-454 (…-NHNH2) (peptide)
peptide: AEGTGDHLCGAWFRPCDADPGPEGGGS-NHNH2
modifications: disulfide 9-16
Turning to B8, in assay [3], the % recovery in Flow worked out at 2.2% and the % recovery in elution A was 42.4%. Further, in assay [5], the % recovery in Flow is 2.5%, the % recovery in elution A is 45.1%, the % recovery in elution B was determined as 0% and the % recovery in pH2 came out at 0%. Besides, in assay [6], the % of input recovered in Eluate was found to be 49%, the % of input recovered in Unbound is 24% and the % of input recovered in Wash was 12%.

B9: TN7 phage isolate A08 (peptide)
peptide: FGCSWLFPCPF
For B9, the R (ELISA score with target / ELISA score without target) in assay [1] came to 8. Besides, in assay [2], the ELISA signal is 0.4 OD630.

B10: TN8 phage isolate 12 (SEQ ID NO: 17) (peptide)
peptide: HLCFAWFRPCDA
On to B10, for which the R (ELISA score with target / ELISA score without target) in assay [1] is 8. In addition, in assay [2], the ELISA signal stood at 0.4 OD630.

B11: CS-459 (…-NHNH2) (peptide)
peptide: AEGTGDFCWVFPFQHCADPGPEGGGS-NHNH2
modifications: disulfide 8-16 (inferred)
Regarding B11, in assay [3], the % recovery in Flow was 6.4% and the % recovery in elution A was 31.2%. Besides, in assay [5], the % recovery in Flow was 1.6%, the % recovery in elution A was determined as 42.1%, the % recovery in elution B was 0% and the % recovery in pH2 was determined as 0%.

B12: TN8 phage isolate 10 (C10-TN8) (peptide)
peptide: HPCGSWLRPCLH
As for B12, the R (ELISA score with target / ELISA score without target) in assay [1] amounted to 16. For the same molecule, the ELISA signal in assay [2] is 1 OD630.

B13: TN8 phage isolate 02 (SEQ ID NO: 14) (peptide)
peptide: HPCGSWFRPCFH
On to B13, for which the R (ELISA score with target / ELISA score without target) in assay [1] was 16. Further, in assay [2], the ELISA signal came to 0.7 OD630.

B14: TN9/1 phage isolate … (SEQ ID NO: 75) (peptide)
peptide: FCWVFNWVHCD
For the molecule B14, in assay [1], the R (ELISA score with target / ELISA score without target) stood at 14.

B15: TN9 phage isolate 02 (SEQ ID NO: 27) (peptide)
peptide: FCWVFPFNHCD
B15: in assay [1], the R (ELISA score with target / ELISA score without target) is 8. In addition, in assay [2], the ELISA signal came to 0.4 OD630.

B16: TN9 phage isolate 03 (SEQ ID NO: 26) (peptide)
peptide: FCWVFNFSHCS
For the molecule B16, the R (ELISA score with target / ELISA score without target) in assay [1] worked out at 24. The ELISA signal in assay [2] was determined as 1.1 OD630.

B17: CS-453 (…-NHNH2) (peptide)
peptide: AEGTGDHPCGSWLRPCLHDPGPEGGGS-NHNH2
modifications: disulfide 9-16 (inferred)
Turning to B17, in assay [3], the % recovery in Flow stood at 0% and the % recovery in elution A was 26.4%. Besides, in assay [5], the % recovery in Flow worked out at 0%, the % recovery in elution A worked out at 43.2%, the % recovery in elution B was determined as 0% and the % recovery in pH2 stood at 0%.

B18: TN9 phage isolate 01 (SEQ ID NO: 24) (peptide)
peptide: FCHVFHFSHCD
Regarding B18, the ELISA signal in assay [2] came to 0.2 OD630.

B19: CS-460 (…-NHNH2) (peptide)
peptide: AEGTGDFCWVFPFHHCFDPGPEGGGS-NHNH2
modifications: disulfide 8-16 (inferred)
As to B19, in assay [3], the % recovery in Flow turned out to be 28.4% and the % recovery in elution A was determined as 0%. In assay [5], the % recovery in Flow amounted to 24.6%, the % recovery in elution A was determined as 28.8%, the % recovery in elution B turned out to be 0% and the % recovery in pH2 was found to be 0%.

B20: TN8 phage isolate 02 (E02-TN8, SEQ ID NO: 16) (peptide)
peptide: HLCGAWFRPCDA
For B20, in assay [1], the R (ELISA score with target / ELISA score without target) came to 6. Moreover, the ELISA signal in assay [2] was 0.4 OD630.

B21: TN8 phage isolate 04 (SEQ ID NO: 12) (peptide)
peptide: HPCGSWLHPCAA
With B21, the R (ELISA score with target / ELISA score without target) in assay [1] turned out to be 6. In assay [2], the ELISA signal amounted to 0.3 OD630.

B22: TN8 phage isolate 08 (SEQ ID NO: 20) (peptide)
peptide: HPCGAWLRPCYN
With B22, the R (ELISA score with target / ELISA score without target) in assay [1] was 20. Also, the ELISA signal in assay [2] is 1 OD630.

B23: TN7 phage isolate C5/G10 (peptide)
peptide: RLCSWVSPCSA
On to B23, for which the R (ELISA score with target / ELISA score without target) in assay [1] was 10. The ELISA signal in assay [2] came out at 0.5 OD630.

B24: TN9 phage isolate 09 (E09-TN9) (peptide)
peptide: FCWVFPFQHCA
As for B24, the R (ELISA score with target / ELISA score without target) in assay [1] worked out at 24. Besides, in assay [2], the ELISA signal was determined as 1.1 OD630.

B25: CS-456 (…-NHNH2) (peptide)
peptide: AEGTGDFGCSWLFPCPFDPGPEGGGS-NHNH2
modifications: disulfide 9-15
For the molecule B25, in assay [3], the % recovery in Flow was determined as 4.8% and the % recovery in elution A was found to be 43%. In assay [5], the % recovery in Flow came out at 3.4%, the % recovery in elution A amounted to 44.8%, the % recovery in elution B was determined as 0% and the % recovery in pH2 is 0%. In addition, in assay [6], the % of input recovered in Eluate amounted to 24%, the % of input recovered in Unbound amounted to 47% and the % of input recovered in Wash was 20%.

B26: TN7 phage isolate A06 (peptide)
peptide: HSCGSWLFPCFA
On to B26, for which the R (ELISA score with target / ELISA score without target) in assay [1] was 10. For the same molecule, the ELISA signal in assay [2] is 0.5 OD630.

B27: CS-455 (…-NHNH2) (peptide)
peptide: AEGTGDFHCIGVWFCLHDPGPEGGGS-NHNH2
modifications: disulfide 9-15 (inferred)
For B27, in assay [3], the % recovery in Flow was determined as 61.6% and the % recovery in elution A turned out to be 1.3%. Also, in assay [5], the % recovery in Flow worked out at 65.8%, the % recovery in elution A came out at 1.4%, the % recovery in elution B is 0% and the % recovery in pH2 was 0%.

B28: TN9 phage isolate 06 (D06-TN9) (peptide)
peptide: FCWVFPFHHCF
As for B28, in assay [1], the R (ELISA score with target / ELISA score without target) was found to be 6. Moreover, the ELISA signal in assay [2] is 0.3 OD630.

B29: TN9 phage isolate 02 (SEQ ID NO: 23) (peptide)
peptide: FCWVHPFAHCL
As for B29, the ELISA signal in assay [2] amounted to 0.2 OD630.

B30: TN7 phage isolate A09 (peptide)
peptide: FHCIGVWFCLH
For the molecule B30, the ELISA signal in assay [2] was found to be 0.1 OD630.

B31: TN9/1 phage isolate … (SEQ ID NO: 77) (peptide)
peptide: FCWVFQFRHCH
For the molecule B31, in assay [1], the R (ELISA score with target / ELISA score without target) is 8.

B32: TN8 phage isolate 05 (SEQ ID NO: 11) (peptide)
peptide: RGCGSWLRPCLD
On to B32, for which the ELISA signal in assay [2] amounted to 0.2 OD630.

B33: TN9 phage isolate 12 (SEQ ID NO: 28) (peptide)
peptide: FCWVFPFNHCS
B33: the R (ELISA score with target / ELISA score without target) in assay [1] worked out at 18. For the same molecule, in assay [2], the ELISA signal came out at 1 OD630.

B34: TN7 phage isolate D03 (peptide)
peptide: PHCNWLFPCSL
As to B34, the ELISA signal in assay [2] amounted to 0.2 OD630.

B35: TN8 phage isolate 07 (SEQ ID NO: 15) (peptide)
peptide: HACGSWFRPCHA
In the case of B35, the R (ELISA score with target / ELISA score without target) in assay [1] amounted to 6. For the same molecule, in assay [2], the ELISA signal worked out at 0.4 OD630.

B36: TN8 phage isolate 11/G10 (A11/G10-TN8) (peptide)
peptide: HRCGSWLHPCLA
B36: the R (ELISA score with target / ELISA score without target) in assay [1] came to 6. In addition, the ELISA signal in assay [2] amounted to 0.3 OD630.

B37: TN9 phage isolates 04 (B04-TN9) and 01 displaying Phe-Cys-Trp-Val-Phe-Ala-Phe-Asp-His-Cys-His (peptide)
peptide: FCWVFAFDHCH
Regarding B37, the R (ELISA score with target / ELISA score without target) in assay [1] is 24.

For the origin of these results see patent US20120045819A1.
